In general, Kd refers to the concentration at which binding is half-saturated.

7 molecules from patent US20190169241A1 (BOARD OF TRUSTEES OF THE UNIVERSITY OF ILLINOIS, published 2019) can be followed below.

No end group written: not given here.

Test [1] addresses T1, vascular endothelial growth factor receptor 2 (VEGFR2), endogenous, from HUVEC lysates (human, UniProt P35968 20-1356).
T1 construct: Endogenous receptor from cell lysate, detected by western blot with anti-VEGFR2 antibody or by mass spectrometry; also called Flk-1
The test is described as follows: pull-down of endogenous VEGFR2 from HUVEC lysate with the recombinant truncation on beads, western blot with anti-VEGFR2 antibody.

The target of test [2] is T1, vascular endothelial growth factor …. The test is described as follows: pull-down from HUVEC lysate with recombinant protein on beads, anti-VEGFR2 western blot. The text has this: The DUFs were identified from amino acid sequence similarity on the Pfam database. It has been previously shown that both domains of DUF3694 directly bind recombinant VEGFR2 in vitro (Yamada, et al. (2007) Biochemistry 46:10039-45). […] DUF2 was divided into 3 parts, DUF2A (residues 1111-1167), DUF2B (residues 1168-1216), and DUF2C (residues 1217-1281) and each part was expressed as a recombinant protein in bacteria. VEGFR2 was abundantly expressed in HUVECs; thus, cell lysate from HUVECs was incubated with these recombinant proteins on beads, and VEGFR2 binding was determined using the anti-VEGFR2 antibody.
For orientation: In western blotting, separated proteins are transferred to a membrane and probed.

A further test addresses Tie2 (UniProt Q02763 23-1124, limits assumed). Put plainly: pull-down with peptide on streptavidin beads, mass spec analysis.
The next test deals with T2, Par1 (UniProt P25116 22-425, limits assumed).
T2 sequence (looked up): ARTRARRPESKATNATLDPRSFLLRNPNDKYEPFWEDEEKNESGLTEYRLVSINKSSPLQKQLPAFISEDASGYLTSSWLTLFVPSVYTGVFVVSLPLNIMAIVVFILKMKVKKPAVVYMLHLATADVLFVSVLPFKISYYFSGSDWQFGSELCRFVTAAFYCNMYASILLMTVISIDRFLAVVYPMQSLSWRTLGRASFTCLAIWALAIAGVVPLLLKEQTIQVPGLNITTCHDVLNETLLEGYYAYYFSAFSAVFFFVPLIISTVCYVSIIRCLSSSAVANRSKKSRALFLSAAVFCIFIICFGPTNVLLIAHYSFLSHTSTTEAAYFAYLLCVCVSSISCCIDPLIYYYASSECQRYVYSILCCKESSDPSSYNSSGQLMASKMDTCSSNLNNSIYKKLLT
The description is as above.

For test [3], the target named is T3, VEGFR2, recombinant cytosolic domain (Fisher Scientific) (UniProt P35968 789-1356, limits assumed).
T3 construct: domain: cytosolic domain; Analyte in the BIACORE experiment
T3 sequence (P35968 789-1356 limits assumed): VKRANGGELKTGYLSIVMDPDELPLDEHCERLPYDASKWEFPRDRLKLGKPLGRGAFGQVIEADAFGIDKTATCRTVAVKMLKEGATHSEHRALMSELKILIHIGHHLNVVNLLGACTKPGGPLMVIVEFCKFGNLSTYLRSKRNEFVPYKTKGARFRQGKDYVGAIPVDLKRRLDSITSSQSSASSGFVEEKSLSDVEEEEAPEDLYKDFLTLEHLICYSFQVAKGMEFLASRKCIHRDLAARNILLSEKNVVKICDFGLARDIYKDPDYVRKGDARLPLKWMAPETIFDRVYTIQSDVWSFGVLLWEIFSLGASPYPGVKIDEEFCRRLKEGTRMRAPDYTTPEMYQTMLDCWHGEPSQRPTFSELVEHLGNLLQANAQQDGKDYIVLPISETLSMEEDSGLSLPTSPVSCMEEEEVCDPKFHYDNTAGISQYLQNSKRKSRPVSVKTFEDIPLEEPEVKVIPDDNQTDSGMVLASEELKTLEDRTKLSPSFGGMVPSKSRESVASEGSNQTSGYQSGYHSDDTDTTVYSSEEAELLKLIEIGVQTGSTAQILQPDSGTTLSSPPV
Put plainly: SPR (BIACORE), peptide on avidin-coated chip, recombinant cytosolic domain as analyte.

The target in test [4] is T1, vascular endothelial growth factor …. Put plainly: pull-down from HUVEC lysates, peptide on streptavidin beads.
Test [5] concerns the target PDGFRα, endogenous, found in the pull-down by mass spectrometry (UniProt P16234 24-1089, limits assumed). The test is described as follows: pull-down with peptide on streptavidin beads, mass spec analysis.
Test [6] addresses PDGFRβ, endogenous, found in the pull-down by mass spectrometry (UniProt P09619 33-1106, limits assumed). Described as above.
For test [7], the target named is EGFR, endogenous, found in the pull-down by mass spectrometry (UniProt P00533 25-1210, limits assumed). The description is as above.

T1 sequence (P35968 20-1356 limits assumed): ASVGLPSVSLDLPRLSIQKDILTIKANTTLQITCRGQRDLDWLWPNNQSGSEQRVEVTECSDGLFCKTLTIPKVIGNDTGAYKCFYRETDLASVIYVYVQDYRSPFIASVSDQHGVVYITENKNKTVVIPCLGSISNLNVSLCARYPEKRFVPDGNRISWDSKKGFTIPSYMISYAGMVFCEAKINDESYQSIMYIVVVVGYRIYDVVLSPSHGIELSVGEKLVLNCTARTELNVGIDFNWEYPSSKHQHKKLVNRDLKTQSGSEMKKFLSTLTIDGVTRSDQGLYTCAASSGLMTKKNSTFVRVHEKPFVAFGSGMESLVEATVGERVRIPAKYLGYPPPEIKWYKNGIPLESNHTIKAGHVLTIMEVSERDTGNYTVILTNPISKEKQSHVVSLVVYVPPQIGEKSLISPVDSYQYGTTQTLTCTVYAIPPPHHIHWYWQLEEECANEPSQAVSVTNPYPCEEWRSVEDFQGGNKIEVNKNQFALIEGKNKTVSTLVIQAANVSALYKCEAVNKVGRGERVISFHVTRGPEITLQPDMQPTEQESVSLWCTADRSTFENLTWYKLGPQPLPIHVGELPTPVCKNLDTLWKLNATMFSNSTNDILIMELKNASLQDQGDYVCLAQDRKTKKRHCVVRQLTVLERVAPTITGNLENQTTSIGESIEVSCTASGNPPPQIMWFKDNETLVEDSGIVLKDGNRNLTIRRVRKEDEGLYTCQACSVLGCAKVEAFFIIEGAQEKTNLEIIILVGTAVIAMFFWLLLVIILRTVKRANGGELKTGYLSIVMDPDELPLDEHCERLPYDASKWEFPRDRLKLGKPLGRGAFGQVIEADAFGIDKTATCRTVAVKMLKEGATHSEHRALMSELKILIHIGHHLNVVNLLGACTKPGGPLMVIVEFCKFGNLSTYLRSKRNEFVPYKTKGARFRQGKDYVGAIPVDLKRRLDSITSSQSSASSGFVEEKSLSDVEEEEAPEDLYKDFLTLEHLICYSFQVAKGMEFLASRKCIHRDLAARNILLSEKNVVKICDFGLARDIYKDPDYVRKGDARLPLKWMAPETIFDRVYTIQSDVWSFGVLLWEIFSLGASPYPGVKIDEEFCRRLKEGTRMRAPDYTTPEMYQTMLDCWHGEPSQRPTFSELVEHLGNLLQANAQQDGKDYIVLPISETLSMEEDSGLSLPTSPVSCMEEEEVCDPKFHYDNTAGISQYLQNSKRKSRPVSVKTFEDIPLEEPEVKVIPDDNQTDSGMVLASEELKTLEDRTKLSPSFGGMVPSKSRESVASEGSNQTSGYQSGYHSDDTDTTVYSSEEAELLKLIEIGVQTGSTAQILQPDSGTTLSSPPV
PDGFRα, endogenous, found in the pull-down by mass spectrometry, sequence (P16234 24-1089 limits assumed): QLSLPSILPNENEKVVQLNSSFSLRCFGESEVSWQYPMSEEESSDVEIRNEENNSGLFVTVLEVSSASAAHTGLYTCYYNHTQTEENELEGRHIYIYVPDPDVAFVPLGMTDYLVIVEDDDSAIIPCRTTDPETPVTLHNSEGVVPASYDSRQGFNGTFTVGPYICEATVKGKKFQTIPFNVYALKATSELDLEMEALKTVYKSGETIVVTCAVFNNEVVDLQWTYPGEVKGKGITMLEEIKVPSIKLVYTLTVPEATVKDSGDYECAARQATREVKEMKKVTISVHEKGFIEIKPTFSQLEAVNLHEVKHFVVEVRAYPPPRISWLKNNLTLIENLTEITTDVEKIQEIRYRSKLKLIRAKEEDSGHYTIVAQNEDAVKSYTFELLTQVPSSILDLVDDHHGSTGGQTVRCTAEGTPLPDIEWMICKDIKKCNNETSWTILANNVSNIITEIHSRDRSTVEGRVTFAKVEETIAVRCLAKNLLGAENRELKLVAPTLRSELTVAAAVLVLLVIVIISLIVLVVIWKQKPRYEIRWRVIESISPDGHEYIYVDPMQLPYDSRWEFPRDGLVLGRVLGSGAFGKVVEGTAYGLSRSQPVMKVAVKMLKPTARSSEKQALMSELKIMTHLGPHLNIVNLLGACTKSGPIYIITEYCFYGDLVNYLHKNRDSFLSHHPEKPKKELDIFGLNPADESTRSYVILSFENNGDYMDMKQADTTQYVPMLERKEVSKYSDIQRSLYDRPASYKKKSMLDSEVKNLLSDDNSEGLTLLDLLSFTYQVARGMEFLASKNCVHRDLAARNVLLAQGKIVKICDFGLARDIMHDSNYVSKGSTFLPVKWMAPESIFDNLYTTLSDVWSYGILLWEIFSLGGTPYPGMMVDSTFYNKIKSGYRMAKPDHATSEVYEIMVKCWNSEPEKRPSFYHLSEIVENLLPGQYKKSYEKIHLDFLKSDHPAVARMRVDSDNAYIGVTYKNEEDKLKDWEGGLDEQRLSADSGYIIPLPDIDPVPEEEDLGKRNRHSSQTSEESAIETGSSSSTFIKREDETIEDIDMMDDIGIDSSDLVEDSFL
Tie2, sequence (Q02763 23-1124 limits assumed): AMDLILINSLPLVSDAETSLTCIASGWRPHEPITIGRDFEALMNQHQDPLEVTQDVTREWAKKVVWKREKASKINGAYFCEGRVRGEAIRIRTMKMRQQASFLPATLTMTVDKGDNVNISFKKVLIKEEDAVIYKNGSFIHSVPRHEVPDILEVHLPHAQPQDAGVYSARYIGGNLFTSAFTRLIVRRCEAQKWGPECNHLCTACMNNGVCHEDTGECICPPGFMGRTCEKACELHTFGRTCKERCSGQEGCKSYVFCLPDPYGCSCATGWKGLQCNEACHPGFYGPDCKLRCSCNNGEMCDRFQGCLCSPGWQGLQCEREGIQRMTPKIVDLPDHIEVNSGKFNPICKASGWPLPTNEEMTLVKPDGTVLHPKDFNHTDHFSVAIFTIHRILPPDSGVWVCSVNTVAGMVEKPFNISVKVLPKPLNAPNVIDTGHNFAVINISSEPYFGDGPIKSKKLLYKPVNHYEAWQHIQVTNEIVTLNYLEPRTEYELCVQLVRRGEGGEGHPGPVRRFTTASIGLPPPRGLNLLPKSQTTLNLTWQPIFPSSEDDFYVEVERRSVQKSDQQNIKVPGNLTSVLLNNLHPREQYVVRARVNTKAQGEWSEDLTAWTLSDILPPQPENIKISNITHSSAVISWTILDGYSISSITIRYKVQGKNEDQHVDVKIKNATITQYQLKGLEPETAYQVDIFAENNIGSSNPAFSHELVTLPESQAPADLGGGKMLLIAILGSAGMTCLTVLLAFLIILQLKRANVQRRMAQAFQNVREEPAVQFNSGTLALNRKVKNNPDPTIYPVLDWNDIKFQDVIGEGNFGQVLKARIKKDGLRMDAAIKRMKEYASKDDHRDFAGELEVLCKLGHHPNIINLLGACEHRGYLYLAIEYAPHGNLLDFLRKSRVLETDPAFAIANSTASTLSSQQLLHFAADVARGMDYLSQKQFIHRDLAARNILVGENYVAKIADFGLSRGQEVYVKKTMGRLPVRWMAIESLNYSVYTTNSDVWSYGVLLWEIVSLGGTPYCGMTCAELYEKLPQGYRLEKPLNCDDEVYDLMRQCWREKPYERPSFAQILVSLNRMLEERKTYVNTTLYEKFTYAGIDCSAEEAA

B1: C1 (peptide, UniProt Q9NQT8 1202-1240, looked up)
single chain: GEEEEEFFELQIVKQHDGEVKAEASWDSAVHGCPQLSRG
notes: recombinant truncated mutant expressed in bacteria with His-tag and S-tag; the sheet prints only 'C1'; also called DUF2C1; DUF C1 (1202-1240 aa)
Regarding B1, the binding result in test [1] is reported as “no binding”.

B2: DUF2A (residues 1111-1167 of KIF13B), recombinant protein from bacteria (other, human, UniProt Q9NQT8 1111-1167, looked up)
chain: QKLVSKRDKTEDDADREAQLLEMRLTLTEERNAVMVPSAGSGIPGAPAEWTPVPGME
notes: range 1111-1167; not shown: His-tag and S-tag
As for B2, the binding result in [2] is reported as “no binding”.

B3: C7 (peptide, not shown: small tags and cut ends)
peptide: ADMQLVLRKRICVNVHGRQGF
notes: the sheet prints only 'C7'; also called DUF2C7; DUF C7 (1261-1281 aa)
As for B3, in test [1], the binding result was “no binding”.

B4: Biotin-DUF2C5 peptide (synthetic, residues 1238-1260 of KIF13B with a biotin-tag) (peptide)
peptide: SRGTPVDERLFLIVRVTVQLSHP
modifications: also: biotin-tag (position not given here)
notes: Immobilised on streptavidin beads (pull-down, mass spectrometry) or on an avidin-coated BIACORE chip
On to B4, for which the binding result with Tie2 and with Par1 was “no binding” throughout. Moreover, the Kd in [3] amounted to 5.5 nM. For RVRASELRSFSRMLAGDPGCSPG (peptide, UniProt Q9NQT8 1650-1672, looked up, also: biotin-tag (position not given here), range 1650-1672) [CT23 (residues 1650 to 1672 of KIF13B), synthetic negative control peptide with a biotin-tag], the binding result in [4], in test [5], in test [6], in test [7] and in test [3] was “no binding” each time.

B5: C4 (peptide, UniProt Q9NQT8 1226-1251, looked up)
single chain: SWDSAVHGCPQLSRGTPVDERLFLIV
notes: recombinant truncated mutant expressed in bacteria with His-tag and S-tag; the sheet prints only 'C4'; also called DUF2C4; DUF C4 (1226-1251 aa)
B5: the binding result in [1] is on record as “no binding”.

B6: DUF2B (residues 1168-1216 of KIF13B), recombinant protein from bacteria (other, human, UniProt Q9NQT8 1168-1216, looked up)
chain: THIPVIFLDLNADDFSSQDNLDDPEAGGWDATLTGEEEEEFFELQIVKQ
notes: range 1168-1216; not shown: His-tag and S-tag
With B6, the binding result in test [2] was “no binding”.
